Source: patent publication US20260102505A1, “ANTI-CD45-IGN ANTIBODY DRUG CONJUGATES AND USES THEREOF” (Vor Biopharma Inc., priority 2022, published 2026)

How the values were obtained:
[1] = target: CD45 of non-human primate (NHP), on cells in vivo (non-human primate (NHP); not stated further); experiment: in vivo receptor occupancy in NHP at the minimum efficacious dose of 0.15 mg/kg
[2] = target: CD45 of non-human primate (NHP), on cells in vivo (non-human primate (NHP); not stated further); experiment: in vivo receptor occupancy on T cells at 24 h after a single dose of 0.30 mg/kg in NHP, n=6
[3] = target: CD45 of non-human primate (NHP), on cells in vivo (non-human primate (NHP); not stated further); experiment: in vivo receptor occupancy on T cells at 24 h after a single dose of 0.60 mg/kg in NHP, n=3
[4] = target: CD45 of non-human primate (NHP), on cells in vivo (non-human primate (NHP); not stated further); experiment: in vivo receptor occupancy on T cells at 24 h after a single dose of 0.05 mg/kg in NHP, n=3; footnote: * % RO measured after ADC clearance
[5] = target: CD45 of non-human primate (NHP), on cells in vivo (non-human primate (NHP); not stated further); experiment: in vivo receptor occupancy on T cells at 24 h after a single dose of 0.10 mg/kg in NHP, n=6; footnote: * % RO measured after ADC clearance
[6] = target: CD45 of non-human primate (NHP), on cells in vivo (non-human primate (NHP); not stated further); experiment: in vivo receptor occupancy on T cells at 24 h after a single dose of 0.20 mg/kg in NHP, n=3; footnote: * % RO measured after ADC clearance

B1: anti-CD45 ADC comprising anti-CD45 Ab5 conjugated to DGN-549 via cysteines at amino acid 265 (EU numbering by Kabat) in the Fc region, protease-cleavable linker (antibody, human IgG1, kappa, L234A L235A, V domains shown)
VH: EVQLVESGGGLVQPGGSLRLSCAASGFTFEAYSMNWVRQAPGKGLEWVSYISLSGATIHYADSVKGRFTISRDNAKNSLYLQMNSLRAEDTAVYYCARGGQYYYTSSDYGEVAFDIWGQGTMVTVSS
VL: DIVMTQSPLSLPVTPGEPASISCRSSQSLVSSGYNYLDWYLQKPGQSPQLLIYFGSSRASGVPDRFSGSGSGTDFTLKISRVEAEDVGVYYCMQRRRTPWSFGGGTKVEIKR
modifications: DGN549 (IGN pseudo dimer) via a protease-cleavable linker on the engineered Cys at position 265 (EU numbering; D265C)
For B1, the receptor occupancy (RO) [1] was 5%, the % Receptor Occupancy (T-cells @ 24h) [2] was 46% and the % Receptor Occupancy (T-cells @ 24h) [3] was 100%. It also gave a % Receptor Occupancy (T-cells @ 24h) [4] of 2%, a % Receptor Occupancy (T-cells @ 24h) [5] of 4% and a % Receptor Occupancy (T-cells @ 24h) [6] of 6%.
